# Source: the DeepSol protein solubility set
# Assay: soluble on expression in E. coli; label from the status in PepcDB or PDB records
row,Sequence,soluble on expression in E. coli
1,MPLENVMTDLKASSLRALKLMDLTTLNDDDTNEKVIALCHQAKTPVGNTAAICIYPRFIPIARKTLKEQGTPDIRIATVTNFPHGNDDIDIALAETRAAIAYGADEVDVVFPYRALIAGNEQVGFDLVKACKDACAAANVLLKVIIETGELKEEALIRKASEISIKAGADFIKTSTGKVPVNATPESARIMMEVIRDMGVSKTVGFKPAGGVRTAEDAQKFLAIADELFGADWADSRHYRFGASSLLASLLKALGHGDGKSASSY,not soluble
2,MSMKTTQEINKEDEELCNESKKFMDVYYDVMDRKREKIGFLYTQVSNAVWNGNPINGYDSICEFMKALPSTQHDIQSLDAQRLPEGVTGDMSGGMLLNVAGAVTVDGDSKRAFTQTLLLGVEDGKYKVKSDRFRYVD,not soluble
3,GSHMIDVPIPRFAVGIVIGRNGEMIKKIQNDAGVRIQFKPDDGTTPERIAQITGPPDRAQHAAEIITDLLRSVQAGNPGGPGPGGRGRGRGQGNWNMGPPGGLQEFNFIVPTGKTGLIIGKGGETIKSISQQSGARIELQRNPPPNADPNMKLFTIRGTPQQIDYARQLIEEKI,soluble
4,MKNIRNFSIIAHIDHGKSTLSDRIIQICGGLSDREMEAQVLDSMDLERERGITIKAQSVTLDYKASDGETYQLNFIDTPGHVDFSYEVSRSLAACEGALLVVDAGQGVEAQTLANCYTAMEMDLEVVPVLNKIDLPAADPERVAEEIEDIVGIDATDAVRCSAKTGVGVQDVLERLVRDIPPPEGDPEGPLQALIIDSWFDNYLGVVSLIRIKNGTLRKGDKVKVMSTGQTYNADRLGIFTPKQVDRTELKCGEVGWLVCAIKDIHGAPVGDTLTLARNPAEKALPGFKKVKPQVYAGLFPVSSDDYEAFRDALGKLSLNDASLFYEPESSSALGFGFRCGFLGLLHMEIIQERLEREYDLDLITTAPTVVYEVETTSREVIYVDSPSKLPAVNNIYELREPIAECHMLLPQAYLGNVITLCVEKRGVQTNMVYHGNQVALTYEIPMAEVVLDFFDRLKSTSRGYASLDYNFKRFQASDMVRVDVLINGERVDALALITHRDNSQNRGRELVEKMKDLIPRQQFDIAIQAAIGTHIIARSTVKQLRKNVLAKCYGGDISRKKKLLQKQKEGKKRMKQIGNVELPQEAFLAILHVGKDNK,soluble
5,MKKSPKISLILEAFQNLEKAYVDLKKNLEIPKEEFVKNKLVQDRVRIDFNLAFESTMRVCRHLSAVYGVKTSSRDCLPKIAEHIGLPFADRLKKFSEFYFRYRDLKDTVSPEELYDFLKENLVLFKEFARGVVEYIKKTTGNYLLIDFDLLNEKAKFIKDSVKKIDFVLSQGEEEFKKTPMYYDRVKYFYQVAYDSLFDICKHLAPKFGIKKFGDDCLTKMVEKGVIPPEYYETVLKMTLLKNKLISTWEVSPEELYRSLKELNDKFIPVLREISKSLKLLLEKKAKEVGKEA,not soluble
6,TAPTLAEEVKQQSDGSVIIEGSANLRDLNKLFNWHLPINEVRTFNGLILEHLEKIPIEGTQFRLNQLNITVLEVADNMVKKVKVELIE,soluble
7,MNCRPGCGACCIAISISSPIPGMPRGKPAGVPCVQLRDDMECAIFGRPERPACCSGLRPSDEMCGGDRSHAMTWLARLEQATLPAAENTPHRPPLEHHHHHH,not soluble
8,GSELETAMETLINVFHAHSGKEGDKYKLSKKELKELLQTELSGFLDAQKDADAVDKVMKELDEDGDGEVDFQEYVVLVAALTVACNNFFWENS,soluble
9,HGYVESPASRAYQCKLQLNTQCGSVQAEPQSVEGLKGFPQAGPADGHIASADKSTFFELDQQTPTRWNKLNLKTGPNSFTWKLTARHSTTSWRYFITKPNWDASQPLTRASFDLTPFCQFNDGGAIPAAQVTHQCNIPADRSGSHVILAVWDIADTANAFYQAIDVNLSK,soluble
10,MGSDKIHHHHHHMTTLSDVAKEANVSKMTVSRVINHPEQVTPELRAMVEKAMEKLNYHPNSIAQALVNNRSNVVKFVTLEDIDTTEPYYTNLLFGFARGLNAKQYALQLVVDPTRIEKGRADGYLITGARNEDYDMFDKLDKPFVLFGENHRGYDFVDTDNQTAEKMATQYALDRLYKHIIFIGIDIKEPFEYSREAGYINTLQQHRLIPQIYRVSNHSHAAQKVIHEHFKEFKKDTCFICASDRIAVGVVRQLQDERARIPEDFGVIGFDGVFLDQVSNPKLTTIKQPIFEMGKMLAKMLLQKIDQSGSPQGELMVKPQLIRRETTR,not soluble
11,MSAKEVDFERESHLHAVMCFLTGQSGEKIVSIYPHRKPATKAPSKDPQPSSSNPGQCVKPVLTSVKDPSYGFGRVDTEFDMSLGMLAYVFKTQEIACNDGFDMKINNQRFVAYPKTWKARGESTNYQISIVFALKNGCEQHTASAYQTLSNKIAVSLVMLQNYFGFLEREDKWADNAEEPNKDHPLEEFAKTSFIVQPLAEMFEEVRNRGNIHKYLINFVELGFCDEAHALTKLNVVPKGRQEIDEIVRKMKPYHGILLLEDVWPTPDANPIVAKLLSHCSPDRSILDMSTASGIPIFEVFMIIRHLLQWTRAILIYPLCNTNIYTSATSPQPLDKMAEKFTAQFGNTIHLAAGLAHFNPPKTLDTFIRKNLPLHEQGVRAKLVVALLRHQMLMQLHQFYYILKPYSIAILPEPKEPCPAEFTKIIEESTLPNDVKGVVADICAEMLETTSYASVKRTLSLFVKVAPMMDGNHHLEEIKYKNNLDRTEIEGVFVSFKLVIATFRRPDFVAE,not soluble
12,MGSDKIHHHHHHMLDRIIGTASANNWLFFCLFNNKFSGDIDSQRLLNMFRSVIAALLACLSYSAHAVVILQYHHVSEDTPKVTSVIPAQFREQMSYLRENGFKVKPLTHVVEAIKQGRELADKTVAITFDDGYQNIADTAHPILKEFGYPYTIFISIDPIERKHKNVMSWATLKRLSDEGVTLANHSWGHEHLIRRLHGEDEQTWLTRITENLLATEAEIEAKTGQSVKMLAYPYGEYNTAIETLVQKLGFVGFGQQSGAAGGYSSLTALPRFPVAGAYADLTSLKAKLYSLNMPVLALTPRNTQLPLGQWRPEMQVTLDMADIVASQVMCFVQGQGAMKPSWESEDTFSIQAVTDLPPGRSRYNCTAPSKASGRYYWFSQAWVRPKNDGTWVKE,not soluble
13,MSIKILKPGLFSTIQDIGRLGYQDLGFSEAGALDYYSLSIAQKLIGNHGPAIEYTLVGPNIEFLTDNTFAIVGGDSEPKLNGNKIDLLTVYHVRNGDQLDIGQITEGARGYIVFGHPLKINKVAQSYSTHVRSGMGGFKGRALKKYDVIATQVNHNYKTNLGKTIDFSSIPDNNYIHVIEGPQINEFDEETIAKFVNSDFKISDQSDRMGYRLKGNTVAPKNSADIISEPVALGSIQVPNDGNPIILLNDKQTIGGYTKIATVTQLDLRKLAQMKPGDIIQFKWITVEEASKKLKEFNTKFEQLLKRFDEQPLFNLNQLRHTSNKIAEIIKEDRLEHHHHHH,not soluble
14,MRRVGESSTGDRKALRSGLKRQGSADEDDIESIFSGIGSARINEPKAKKDDDESNEEKYFSVGKDGRRYHEGLPVYTTEELHLGDGGGDTEDCPIYCDCCL,not soluble
15,SNAMQIVKKEKFILKEYTFENGRTIPVQMGYETYGTLNRERSNVILICHYFSATSHAAGKYTAHDEESGWWDGLIGPGKAIDTNQYFVICTDNLCNVQVKNPHVITTGPKSINPKTGDEYAMDFPVFTFLDVARMQCELIKDMGIARLHAVMGPSAGGMIAQQWAVHYPHMVERMIGVITNPQNPIITSVNVAQNAIEAIRLDPSWKGGKYGEEQPMKGLQLANRMMFMNAFDEHFYETTYPRNSIEVEPYEKVSSLTSFEKEINKLTYRSIELVDANSWMYTAKAVLLHDIAHGFSSLEEALSNVEANVLMIPCKQDLLQPSRYNYKMVDLLQKQGKYAEVYEIESINGHMAGVFDIHLFEKKVYEFLNRKVSSFV,soluble
16,MSLHRLASLPGGWTPAMEGVIIVEQTPAPLIFLTAADTDIQAIARVWPRLPGDFPDLRVCNLLNLQQSFSLDDYGDRVLGQAEVIVVRLLGGKSYWPYGLEVLGELTVTKPDLKLFVLPGDDRPDPSLMNQSTVPLTAVHCLWQYFAEGGTDNIRHGLMWLGDYGFGRNYRPPAPQMVPKVGIYRPEGHHHHHH,soluble
17,MGSDKIHHHHHHMSDLPERLHDIIRRRNMVLGPGYQFSETIPVEFVSSFGAHLIDSDGNDYLDAFNNVQGVGHAHRHVADAVARQIAAINTDTRYPQEALVAYAERLLATFPAELSKLSLPCTGSEANDLAVRVARYHTGGEGIIVTRWAFHGRTREVASFSPMLGAGSPLGPNVRLIAAPDPRFCGPQQSLENYMRDQVRSAIVDLERHGYRLAALVADSAFTSDGIFTHPVGFLQAMVDEVHAAGGLHIADEVQSGFAQLGDSMWGFSRHGVVPDIVTMGKAIGNGFPISGVVFRPEVSDEFGQKVSYFNTLGGRSLSIAAASAVLDVFEQENVRERVAVNGAALQSGLETLARESPYVAEIRGSGLYLGVEIVKDRETLEPDPIRCESIIKDLRDRRVLISRTGSSGNVLKVRPPVAFTAADVSRFLETFAIVAKQRL,not soluble
18,MQRYFVEEKYVNETSIRIVGDDVHHIARVMRMSAGDHIYCCVNGKTAVCSIDEITSEFINTAIVEWVEASSELPVFVTIASGLPKGDKLELIFQKGTELGAAAFLPFQASRSIVKWDAKKADKKVERLRKIVKEAAEQSHRSEIPEVHAPASFKQLLSMSGEYDTCLVAYEEEAKQGEKSNFAKALTTMKPGQKLLIVFGPEGGLAEEEITALREHKFVPCSLGPKNFKNRNGAVIRVKCCFVSF,not soluble
19,MSTLPPCPQCNSEYTYEDGALLVCPECAHEWSPNEAATASDDGKVIKDSVGNVLQDGDTITVIKDLKVKGSSLVVKVGTKVKNIRLVDGDHDIDCKIDGIGAMKLKSEFVRKV,not soluble
20,MGLFDRLRAGLAKTRERLLKAIPWGGDPEEVLEELEMALLAADVGVAATEELLKEVRASGRRDLKEVVKEKLVQMLEPDERRATLRKLGFRPQKLRPVEPQGHVVMVVGVNGVGKTTTIAKLGRLYQGLGKKVLFCAGDTFRAAGGAQLAEWGKRLGIPVIQGPEGADPAALAFDAAKARRARGLDLLFVDTAGRLHTKQGLMEELKKVKRAIAKADPGEPGEVWLVLDAVTGQNGLEQAKRFHEAVGLTGVIVTKLDGTAKGGVLVPIVRTLKVPIRFIGVGEGPDDLQPFDAEAFVEALLEA,soluble
21,MDIARPSCYETVRNDDDKKSSDADIYNTSVKLEDPSAPSHDEQWTYNFFITPLNLNISPTDFKIPNDKSVKYTVKCEAKIKQDLIVQVHSLFFEIVGARCKRGVTSQEFHILSENETMTFEVGMKDLNNVSYENYQAANLLSPAGFITFTHFKSLRKDDASWGVKDPKKLMKVVTKGDGGRYNLEKLLVETETDSIKKISEDFAMILQQGMDDKRTKEQEMKMGNMEMFATEEYVEKWKKDKKAIEIAQKNQREWNDKKLEKPGMQKKKEKKCNIM,not soluble
22,MLKLRFPLPVFRNAREIANGRNARMALKGLVANRAALIISPSFGSSQYFEQVVRLINAQSVRVIERSWQGEPSVEELSGVIGELEDFKPDYILALGGGSIIDGAKLAWLFYECPTLESELLYRPFALPSLRGRAKFAAIPTTVGAGSEVSSAAVMLDSVTNSKKAVVTHDFLPDLVILDPDLVSEVPPKVLKTTVADALSHAIEGYVSLIDNPLMNTFAEQAVSIIYRYRHQFSNDNWSSEMLSELQQAAMFAGWVQNHCIVGLSHAIAHQLGTFNIGHGLANGLLMPAVINFNYREHTAATKYEQLIYKSGLPNKEALLELFEVLVGEQKTDMHFSEQQLTTIAENALLDPAAKSNPVRFTENDVKEIVKQCL,not soluble
